Tests used:
Type in all cases: cell-based
[1] = tested on: Nalm6 cells; test: JNG assay, co-culture with Nalm6 cells; conditions: co-culture with Nalm6
Experimental: Cellular supernatant is collected and assayed for the induction of cytokines (e.g., IL2).
JNG (Jurkat cells expressing EGFP under an NFAT promoter) were infected with lentiviral vectors encoding different single chain and multi-chain SARs by spinfection in the presence of 8 µg/ml of Polybrene® (Sigma, Catalog no. H9268). The Jurkat-NFAT-GFP cells are engineered in such a way that the IL-2 promoter, which carries NFAT binding sites, is cloned upstream of the GFP gene. These cells have been used to study signaling via TCR and CAR. The different SARs were stably expressed in Jurkat NFAT-GFP cells by lentiviral mediated gene transfer, followed by selection with puromycin or blasticidin. No drug selection was used in case the construct lacked an antibiotic resistance gene. The SAR-expressing Jurkat-NFAT-GFP cells were cocultured with the target cells at E:T ratio of approximately 1:2 for approximately 4 hours to 18 hours. When the interaction between SIRs and their target antigen results in activation of the NFAT pathway, GFP expression is induced. […] GFP expression was monitored by FACS analysis. The Jurkat-NFAT-GFP (parental) cells were used as control. The structure of different constructs can be determined based on their names. For example, the construct CD8SP-CD19-hu-mROO5-1-vL-[hTCRa-C SDVP]-F-F2A-Spe-IgHSP-Apa-CD20-vHH-2HCD25-G4S-CDl9-hu-mROO5-1-vH-Mlu-[hTCRb-KACIAH]-F-P2A-PAC has the following modules from 5′ to 3′ direction: a CD8 signal peptide (CD8SP), the CD19 targeting hu-mROO5-1 vL fragment (CD19-hu-mROO5-1), Xho1 cloning site, human TCRa constant chain containing CSDVP mutations (hTCRa-CSDVP), Furine cleavage site (F), F2A ribosomal skip sequence (F2A), SpeI site, human IgH signal peptide (IgHSP), Apa I restriction enzyme site, camelid CD20-2HCD25-VHH module targeting CD20, BamHI restriction enzyme site, Glycinex4-serine linker (G4S), BstI restriction enzyme site, CD19-hu-mROO5-1-vH fragment targeting CD19, Mlu I restriction enzyme site, human TCRb constant chain containing KACIAH mutations ([hTCRb-KACIAH]), Furine cleavage site (F), P2A ribosomal skip sequence and Puromycin resistance gene (PAC). The sequence of the other constructs in the table can be similarly determined from their names and by referring to the different Tables of this disclosure that provide the names and SEQ ID NO of the different modules. Alternatively, the composition and modular architecture of the different SAR constructs can be determined from their sequences by bioinformatics tools, including using nucleic acid and amino acids homology searches. A SAR is considered positive in the assay in case the SAR expressing Jurkat-NFAT-GFP cells show greater % GFP positive cells when cultured with the target cell line as compared to parental Jurkat-NFAT-GFP cells. The signs +/-, +, 2+ etc. after the name of the cell lines indicate the relative degree of positivity on the Jurkat-NFAT-GFP assay as measured by the % GFP positive cells after culture of the SAR expressing Jurkat-NFAT-GFP cells with that cell line above the % GFP cells observed in parental Jurkat NFAT-GFP cells serving as controls. In general, the number +/-, +, 2+, 3+, 4+, 5+ refer to approximately 5%, 10%, 20%, 30%, 40% and 50% GFP positive cells. The % of GFP induction in the above assay is dependent not only the relative strength of the SAR but also, among other factors, on the relative level of expression of the SAR in the JNG cells and the relative level of expression of the target antigen in the target cell line. To control for the difference in gene transduction efficiency of the different SAR constructs, the experiment was conducted with JNG cells transduced with SAR constructs co-expressing a drug resistance gene (e.g., puromycin or PAC) followed by drug selection to generate a stable population of SAR-expressing cells. […]

[2] = tested on: L363 cells; test: JNG assay, co-culture with L363 cells; conditions: co-culture with L363
Summary of the method: (§1)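 Jurkat-NFAT-GFP (JNG) cells stably expressing SAR constructs via lentiviral transduction and puromycin/blasticidin selection were cocultured with target cells at E:T ~1:2 for ~4–18 h. NFAT-driven GFP was measured by FACS versus parental JNG cells; scores +/- to 5+ denote ~5–50% GFP-positive cells.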

[3] = tested on: RAJI cells; test: JNG assay, co-culture with RAJI cells; conditions: JNG cells expressing construct, co-culture with Raji
Summary of the method: as §1

B1: 21987 (protein)
chain: MALPVTALLLPLALLLHAARPQLQLQESGPGLVKPSETLSLTCTVSGDSISSGDYYWGWIRQPPGKGLEWIGHIYYSGVTYYNPSLKSRVTISVDTSRNQFSLKLSSVTAADTAVYYCTREDSSNWRSRGQGTLVTVSSLEDLKNVFPPEVAVFEPSEAEISHTQKATLVCLATGFYPDHVELSWWVNGKEVHSGVCTDPQPLKEQPALNDSRYCLSSRLRVSATFWQNPRNHFRCQVQFYGLSENDEWTQDRAKPVTQIVSAEAWGRADCGFTSESYQQGVLSATILYEILLGKATLYAVLVSALVLMAMVKRKDSRGRAKRSGSGATNFSLLKQAGDVEENPGPTSMDWIWRILFLVGAATGAHSFEQVQLVESGGGLVQPGGSLRLSCAASGFTFTNHAMSWVRQAPGKGLELVSSISGNGRTTYYADSVKGRFTISRDISKNTLDLQMNSLRAEDTAVYYCAKDGGETLVDSRGQGTLVTVSSTRIQNPDPAVYQLRDSKSSDKSVCLFTDFDSQTNVSQSKDSDVYITDKCVLDMRSMDFKSNSAVAWSNKSDFACANAFNNSIIPEDTFFPSPESSCDVKLVEKSFETDTNLNFQNLSVIGFRILLLKVAGFNLLMTLRLWSSRAKRSGSGVKQTLNFDLLKLAGDVESNPGPSRGHMTEYKPTVRLATRDDVPRAVRTLAAAFADYPATRHTVDPDRHIERVTELQELFLTRVGLDIGKVWVADDGAAVAVWTTPESVEAGAVFAEIGPRMAELSGSRLAAQQQMEGLLAPHRPKEPAWFLATVGVSPDHQGKGLGSAVVLPGVEAAERAGVPAFLETSAPRNLPFYERLGFTVTADVEVPEGPRTWCMTRKPGA
NFAT-GFP ASSAY: Nalm6 [1]: +/- (refer to approximately 5%, 10%, 20%, 30%, 40% and 50% GFP positive cells)
NFAT-GFP ASSAY: L363 [2]: + (refer to approximately 5%, 10%, 20%, 30%, 40% and 50% GFP positive cells)

B2: 21986 (protein)
chain: MALPVTALLLPLALLLHAARPQLQLQESGPGLVKPSETLSLTCTVSGDSISSGDYYWGWIRQPPGKGLEWIGHIYYSGVTYYNPSLKSRVTISVDTSRNQFSLKLSSVTAADTAVYYCTREDSSNWRSRGQGTLVTVSSLEDLKNVFPPEVAVFEPSEAEISHTQKATLVCLATGFYPDHVELSWWVNGKEVHSGVCTDPQPLKEQPALNDSRYCLSSRLRVSATFWQNPRNHFRCQVQFYGLSENDEWTQDRAKPVTQIVSAEAWGRADCGFTSESYQQGVLSATILYEILLGKATLYAVLVSALVLMAMVKRKDSRGRAKRSGSGATNFSLLKQAGDVEENPGPTSMDWIWRILFLVGAATGAHSFEEVQLLESGGGLVQPGGSLRLSCAASGFTFSSYAMSWVRQAPGKGLEWVSSISGSGDYIYYADSVKGRFTISRDISKNTLYLQMNSLRAEDTAVYYCAKEGTGANSSLADYRGQGTLVTVSSTRIQNPDPAVYQLRDSKSSDKSVCLFTDFDSQTNVSQSKDSDVYITDKCVLDMRSMDFKSNSAVAWSNKSDFACANAFNNSIIPEDTFFPSPESSCDVKLVEKSFETDTNLNFQNLSVIGFRILLLKVAGFNLLMTLRLWSSRAKRSGSGVKQTLNFDLLKLAGDVESNPGPSRGHMTEYKPTVRLATRDDVPRAVRTLAAAFADYPATRHTVDPDRHIERVTELQELFLTRVGLDIGKVWVADDGAAVAVWTTPESVEAGAVFAEIGPRMAELSGSRLAAQQQMEGLLAPHRPKEPAWFLATVGVSPDHQGKGLGSAVVLPGVEAAERAGVPAFLETSAPRNLPFYERLGFTVTADVEVPEGPRTWCMTRKPGA
NFAT-GFP ASSAY: Nalm6 [1]: +/- (refer to approximately 5%, 10%, 20%, 30%, 40% and 50% GFP positive cells)
NFAT-GFP ASSAY: L363 [2]: + (refer to approximately 5%, 10%, 20%, 30%, 40% and 50% GFP positive cells)

B3: 22210 (protein)
chain: MALPVTALLLPLALLLHAARPACPQLGPYELWELSHGTGGGGSGGGGSGGGGSEFDIQMTQSPSSLSASVGDRVTITCKASDHINNWLAWYQQKPGQAPKLLIYGATTLETGVPSRFSGSGSGTDYTLTISSLQPEDFATYYCQQSWNTPWTFGQGTKLEIKRLEDLKNVFPPEVAVFEPSKAEIAHTQKATLVCLATGFYPDHVELSWWVNGKEVHSGVCTDPQPLKEQPALNDSRYCLSSRLRVSATFWQNPRNHFRCQVQFYGLSENDEWTQDRAKPVTQIVSAEAWGRADCGITSASYHQGVLSATILYEILLGKATLYAVLVSALVLMAMVKRKDSRGRAKRSGSGATNFSLLKQAGDVEENPGPTSATMDWIWRILFLVGAATGAHSGPQVQLQESGGGLAQAGGSLRLSCAASGRTFSMGWFRQAPGKEREFVAAITYSGGSPYYASSVRGRFTISRDNAKNTVYLQMNSLKPEDTAVYYCAANPTYGSDWNAENWGQGTQVTVSSGSGGGGSGGGGSGGGGSFEQVQLQQPGAELVKPGASVKMSCKASGYAFSSYWINWMKQKPGQGLEWIGQIYPGDGDTNYNGKFKGRATLTADTSSSTAYMQLSSLTSEDSAVYFCARSITTVVGCAMDYWGQGTSVTVSSTRIQNPDPAVYQLRDSKSSDKSVCLFTDFDSQTNVSQSKDSDVYITDKCVLDMRSMDFKSNSAVAWSNKSDFACANAFNNSIIPEDTFFPSSDVPCDVKLVEKSFETDTNLNFQNLSVIGFRILLLKVAGFNLLMTLRLWSSRAKRSGSGVKQTLNFDLLKLAGDVESNPGPSRGHMTEYKPTVRLATRDDVPRAVRTLAAAFADYPATRHTVDPDRHIERVTELQELFLTRVGLDIGKVWVADDGAAVAVWTTPESVEAGAVFAEIGPRMAELSGSRLAAQQQMEGLLAPHRPKEPAWFLATVGVSPDHQGKGLGSAVVLPGVEAAERAGVPAFLETSAPRNLPFYERLGFTVTADVEVPEGPRTWCMTRKPGA
NFAT-GFP ASSAY: Nalm6 [1]: + (refer to approximately 5%, 10%, 20%, 30%, 40% and 50% GFP positive cells)
NFAT-GFP ASSAY: Raji [3]: 2+ (refer to approximately 5%, 10%, 20%, 30%, 40% and 50% GFP positive cells)

B4: 22047 (protein)
chain: MALPVTALLLPLALLLHAARPQLQLQESGPGLVKPSETLSLTCTVSGDSISSGDYYWGWIRQPPGKGLEWIGHIYYSGVTYYNPSLKSRVTISVDTSRNQFSLKLSSVTAADTAVYYCTREDSSNWRSRGQGTLVTVSSLEDKTHTCPPCPAPIKTDVITMDPKDNCSKDANDTLLLQLTNTSAYYMYLLLLLKSVVYFAIITCCLLRRTAFCCNGEKSRAKRSGSGATNFSLLKQAGDVEENPGPTSMDWIWRILFLVGAATGAHSFEVQLLESGGGLIQPGGSLRLSCAASGFTFSSHAMTWVRQAPGKGLEWVSAISGSGDYTHYADSVKGRFTISRDNSKNTVYLQMNSLRAEDSAVYYCAKDEDGGSLLGHRGQGTLVTVSSTRIQNPDPAVYQLRDSKSSDKSVCLFTDFDSQTNVSQSKDSDVYITDKCVLDMRSMDFKSNSAVAWSNKSDFACANAFNNSIIPEDTFFPSPESSCDVKLVEKSFETDTNLNFQNLSVIGFRILLLKVAGFNLLMTLRLWSSRAKRSGSGVKQTLNFDLLKLAGDVESNPGPSRGHMTEYKPTVRLATRDDVPRAVRTLAAAFADYPATRHTVDPDRHIERVTELQELFLTRVGLDIGKVWVADDGAAVAVWTTPESVEAGAVFAEIGPRMAELSGSRLAAQQQMEGLLAPHRPKEPAWFLATVGVSPDHQGKGLGSAVVLPGVEAAERAGVPAFLETSAPRNLPFYERLGFTVTADVEVPEGPRTWCMTRKPGA
NFAT-GFP ASSAY: Nalm6 [1]: +/- (refer to approximately 5%, 10%, 20%, 30%, 40% and 50% GFP positive cells)
NFAT-GFP ASSAY: L363 [2]: +/- (refer to approximately 5%, 10%, 20%, 30%, 40% and 50% GFP positive cells)

Source: patent US20230212319A1, “NOVEL ANTIGEN BINDING DOMAINS AND SYNTHETIC ANTIGEN RECEPTORS INCORPORATING THE SAME” (University of Southern California, priority 2020, published 2023)
